Results: article PMC4778124, “A continuous sirtuin activity assay without any coupling to enzymatic or chemical reactions” (Scientific Reports, 2016)
Primed or numbered codes have the meaning given here. *: point of attachment. thiosuccinyl = lysine reacted with methyl 3-[(methylthio)thiocarbonyl]propanoate, then 1 M NaOH (thioxo peptide), O=C(O)CCC(=S)*; thioacetyl = lysine reacted with ethyl dithioacetate (thioxo peptide), CC(=S)*; Bz′ = not defined here

T1: human sirtuin 2 (human, UniProt Q8IXJ6 1-389)
T1 construct: sirtuin 2 (Sirt2), human; also called Sirt2
T1 sequence (looked up): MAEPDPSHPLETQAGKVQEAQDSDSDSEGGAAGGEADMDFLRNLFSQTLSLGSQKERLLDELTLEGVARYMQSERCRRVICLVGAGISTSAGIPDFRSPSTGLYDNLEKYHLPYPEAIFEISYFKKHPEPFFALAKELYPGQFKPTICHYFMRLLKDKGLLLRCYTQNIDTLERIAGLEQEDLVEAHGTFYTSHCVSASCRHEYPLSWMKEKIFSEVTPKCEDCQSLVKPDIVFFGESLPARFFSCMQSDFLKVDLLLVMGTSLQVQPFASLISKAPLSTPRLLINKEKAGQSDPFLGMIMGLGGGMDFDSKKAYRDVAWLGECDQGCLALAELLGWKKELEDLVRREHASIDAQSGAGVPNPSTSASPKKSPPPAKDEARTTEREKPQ


Biological target: T1, human sirtuin 2
Test: enzyme inhibition kinetics (continuous fluorescence activity assay); 96-well MTP fluorescence reader; kcat and KM for substrate 3 recorded at varying inhibitor concentrations (0.01-600 μM); 500 μM NAD+; 20 mM TRIS/HCl pH 7.8, 150 mM NaCl, 5 mM MgCl2; 37 °C; Ki from competitive and non-competitive inhibition models
Settings: both partners purified

| Ki | Binder |
| --- | --- |
| 0.3 ± 0.1 µM | {Bz′}-GVLK(thioacetyl)EYGV-NH2 (source: synthetic peptide) [thioxo peptide 10 based on the CPS1 peptide] |
| 50 ± 9.9 µM | {Bz′}-GVLK(thiosuccinyl)EYGV-NH2 (source: synthetic peptide) [thioxo peptide 11 based on the CPS1 peptide] |
